Experimental findings from patent US11591582, “TCRα homing endonuclease variants” (2seventy bio, Inc.) are described below.

This data set has as its target T1, TCRα2.1 megaTAL (10.5 RVD) (synthetic).
T1 chain: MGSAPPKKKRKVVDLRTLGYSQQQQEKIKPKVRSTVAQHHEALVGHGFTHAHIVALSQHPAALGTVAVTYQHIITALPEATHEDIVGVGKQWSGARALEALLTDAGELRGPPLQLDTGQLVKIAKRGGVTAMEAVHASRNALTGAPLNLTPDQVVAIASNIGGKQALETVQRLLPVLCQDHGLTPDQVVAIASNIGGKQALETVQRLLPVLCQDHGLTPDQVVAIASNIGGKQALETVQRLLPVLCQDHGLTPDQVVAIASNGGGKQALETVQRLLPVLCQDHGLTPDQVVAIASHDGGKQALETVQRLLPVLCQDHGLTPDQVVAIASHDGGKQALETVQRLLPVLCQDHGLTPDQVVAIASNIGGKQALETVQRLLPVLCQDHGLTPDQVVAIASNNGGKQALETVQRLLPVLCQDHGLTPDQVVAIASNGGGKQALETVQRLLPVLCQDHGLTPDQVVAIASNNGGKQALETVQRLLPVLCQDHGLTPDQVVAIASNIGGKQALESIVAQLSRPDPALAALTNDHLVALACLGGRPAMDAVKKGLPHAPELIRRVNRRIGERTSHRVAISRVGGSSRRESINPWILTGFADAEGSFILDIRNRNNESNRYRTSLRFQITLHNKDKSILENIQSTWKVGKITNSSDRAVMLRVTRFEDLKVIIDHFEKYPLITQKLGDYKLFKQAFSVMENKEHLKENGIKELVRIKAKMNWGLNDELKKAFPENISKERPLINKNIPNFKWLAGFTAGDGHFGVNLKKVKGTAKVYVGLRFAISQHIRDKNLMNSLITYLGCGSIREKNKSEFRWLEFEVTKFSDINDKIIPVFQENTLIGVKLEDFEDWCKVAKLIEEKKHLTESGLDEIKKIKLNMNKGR
Briefly: cell_activity; primary human T cells, CD3 knockdown. The settings on record: tags: TALE fusion. From the text:
A single amino acid substitution, E178D, that increased catalytic activity in another I-OnuI variant was inserted at the active site of the TCRα2.0 megaTAL to generate the TCRα2.1 megaTAL (SEQ ID NO: 8). In vitro transcribed mRNA encoding the TCRα2.1 megaTAL (e.g., SEQ ID NO: 15) was electroporated into primary human T cells. The TCRα2.1 megaTAL increased CD3 knockdown 10-fold compared to the TCRα2.0 megaTAL. FIG. 5.

B1: TCRα megaTAL target site (dsDNA)
DNA 1: AAATCCAGTGACAAGTCTGTCTGCCTATTCACCGATTTT
DNA 2: AAAATCGGTGAATAGGCAGACAGACTTGTCACTGGATTT
Consider B1, for which the activity came out at 10 fold vs TCRα2.0 megaTAL.
